Biological target: T1, soluble human CD3 epsilon chain (human, UniProt P07766 23-126)
T1 construct: also called CD3ε
Assay: SPR

T1 sequence (P07766 23-126 limits assumed): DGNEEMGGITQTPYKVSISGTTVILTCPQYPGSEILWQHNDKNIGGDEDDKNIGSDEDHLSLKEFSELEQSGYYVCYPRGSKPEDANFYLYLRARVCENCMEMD

Binder	Kd [nM]
TR01H048-E22Hh/none-Hi-Kn010G3/L0000-k0 (antibody, V domains shown, one-arm) VH: QVQLVESGGGLVQPGRSLRLSCAASGFTFSNAWMHWVRQAPGKGLEWVAQIKDKSQNYATYYAESVKGRFTISRDDSKNSIYLQMNSLKTEDTAVYYCRYVHYSASYGVDIWGQGTTVTVSS VL: DIVMTQSPLSLPVTPGEPASISCRSSQSLVHSNRNTYLHWYQQKPGQAPRLLIYKVSNRFSGVPDRFSGSGSGTDFTLKISRVEAEDVGVYYCGQGTQVPYTFGQGTKLEIKR	45.2
TR01H049-E22Hh/none-Hi-Kn010G3/L0000-k0 (antibody, V domains shown, one-arm) VH: QVQLVESGGGLVQPGRSLRLSCAASGFTFSNAWMHWVRQAPGKGLEWVAQIKDKSQNYATYYAESVKGRFTISRDDSKNSIYLQMNSLKTEDTAVYYCRYVHYSASYGVDAWGQGTTVTVSS VL: DIVMTQSPLSLPVTPGEPASISCRSSQSLVHSNRNTYLHWYQQKPGQAPRLLIYKVSNRFSGVPDRFSGSGSGTDFTLKISRVEAEDVGVYYCGQGTQVPYTFGQGTKLEIKR	67.9
TR01H050-E22Hh/none-Hi-Kn010G3/L0000-k0 (antibody, V domains shown, one-arm) VH: QVQLVESGGGLVQPGRSLRLSCAASGFTFSNAWMHWVRQAPGKGLEWVAQIKDKSQNYATYYAESVKGRFTISRDDSKNSIYLQMNSLKTEDTAVYYCRYVHYSASYGVDYWGQGTTVTVSS VL: DIVMTQSPLSLPVTPGEPASISCRSSQSLVHSNRNTYLHWYQQKPGQAPRLLIYKVSNRFSGVPDRFSGSGSGTDFTLKISRVEAEDVGVYYCGQGTQVPYTFGQGTKLEIKR	57.6
TR01H052-E22Hh/none-Hi-Kn010G3/L0000-k0 (antibody, V domains shown, one-arm) VH: QVQLVESGGGLVQPGRSLRLSCAASGFTFSNAWMHWVRQAPGKGLEWVAQIKDKSQNYATYYAESVKGRFTISRADSKNSLYLQMNSLKTEDTAVYYCRYVHYSASYGVDIWGQGTTVTVSS VL: DIVMTQSPLSLPVTPGEPASISCRSSQSLVHSNRNTYLHWYQQKPGQAPRLLIYKVSNRFSGVPDRFSGSGSGTDFTLKISRVEAEDVGVYYCGQGTQVPYTFGQGTKLEIKR	62.7
TR01H053-E22Hh/none-Hi-Kn010G3/L0000-k0 (antibody, V domains shown, one-arm) VH: QVQLVESGGGLVQPGRSLRLSCAASGFTFSNAWMHWVRQAPGKGLEWVAQIKDKSQNYATYYAESVKGRFTISRADSKNSLYLQMNSLKTEDTAVYYCRYVHYSASYGVDAWGQGTTVTVSS VL: DIVMTQSPLSLPVTPGEPASISCRSSQSLVHSNRNTYLHWYQQKPGQAPRLLIYKVSNRFSGVPDRFSGSGSGTDFTLKISRVEAEDVGVYYCGQGTQVPYTFGQGTKLEIKR	82.3
TR01H054-E22Hh/none-Hi-Kn010G3/L0000-k0 (antibody, V domains shown, one-arm) VH: QVQLVESGGGLVQPGRSLRLSCAASGFTFSNAWMHWVRQAPGKGLEWVAQIKDKSQNYATYYAESVKGRFTISRADSKNSLYLQMNSLKTEDTAVYYCRYVHYSASYGVDYWGQGTTVTVSS VL: DIVMTQSPLSLPVTPGEPASISCRSSQSLVHSNRNTYLHWYQQKPGQAPRLLIYKVSNRFSGVPDRFSGSGSGTDFTLKISRVEAEDVGVYYCGQGTQVPYTFGQGTKLEIKR	77.9
TR01H056-E22Hh/none-Hi-Kn010G3/L0000-k0 (antibody, V domains shown, one-arm) VH: QVQLVESGGGLVQPGRSLRLSCAASGFTFSNAWMHWVRQAPGKGLEWVAQIKDKSQNYATYYAESVKGRFTISRDDSKNSLYLQMNSLKTEDTAVYYCRYVHYSASYGVDIWGQGTTVTVSS VL: DIVMTQSPLSLPVTPGEPASISCRSSQSLVHSNRNTYLHWYQQKPGQAPRLLIYKVSNRFSGVPDRFSGSGSGTDFTLKISRVEAEDVGVYYCGQGTQVPYTFGQGTKLEIKR	73.2
TR01H057-E22Hh/none-Hi-Kn010G3/L0000-k0 (antibody, V domains shown, one-arm) VH: QVQLVESGGGLVQPGRSLRLSCAASGFTFSNAWMHWVRQAPGKGLEWVAQIKDKSQNYATYYAESVKGRFTISRDDSKNSLYLQMNSLKTEDTAVYYCRYVHYSASYGVDAWGQGTTVTVSS VL: DIVMTQSPLSLPVTPGEPASISCRSSQSLVHSNRNTYLHWYQQKPGQAPRLLIYKVSNRFSGVPDRFSGSGSGTDFTLKISRVEAEDVGVYYCGQGTQVPYTFGQGTKLEIKR	112
TR01H058-E22Hh/none-Hi-Kn010G3/L0000-k0 (antibody, V domains shown, one-arm) VH: QVQLVESGGGLVQPGRSLRLSCAASGFTFSNAWMHWVRQAPGKGLEWVAQIKDKSQNYATYYAESVKGRFTISRDDSKNSLYLQMNSLKTEDTAVYYCRYVHYSASYGVDYWGQGTTVTVSS VL: DIVMTQSPLSLPVTPGEPASISCRSSQSLVHSNRNTYLHWYQQKPGQAPRLLIYKVSNRFSGVPDRFSGSGSGTDFTLKISRVEAEDVGVYYCGQGTQVPYTFGQGTKLEIKR	115
TR01H063-E22Hh/none-Hi-Kn010G3/L0000-k0 (antibody, V domains shown, one-arm) VH: QVQLVESGGGVVQPGGSLRLSCAASGFTFSNAWMHWVRQAPGKGLEWVAQIKDKSQNYATYYAESVKGRFTISRADSKNSIYLQMNSLKTEDTAVYYCRYVHYAASYGVDAWGQGTTVTVSS VL: DIVMTQSPLSLPVTPGEPASISCRSSQSLVHSNRNTYLHWYQQKPGQAPRLLIYKVSNRFSGVPDRFSGSGSGTDFTLKISRVEAEDVGVYYCGQGTQVPYTFGQGTKLEIKR	43.5
TR01H065-E22Hh/none-Hi-Kn010G3/L0000-k0 (antibody, V domains shown, one-arm) VH: QVQLVESGGGLVQPGRSLRLSCAASGFTFSNAWMHWVRQAPGKGLEWVAQIKDKSQNYATYYAESVKGRFTISRDDSKNSIYLQMNSLKTEDTAVYYCRYVHYAASYGVDAWGQGTTVTVSS VL: DIVMTQSPLSLPVTPGEPASISCRSSQSLVHSNRNTYLHWYQQKPGQAPRLLIYKVSNRFSGVPDRFSGSGSGTDFTLKISRVEAEDVGVYYCGQGTQVPYTFGQGTKLEIKR	43.1
TR01H066-E22Hh/none-Hi-Kn010G3/L0000-k0 (antibody, V domains shown, one-arm) VH: QVQLVESGGGLVQPGRSLRLSCAASGFTFSNAWMHWVRQAPGKGLEWVAQIKDKSQNYATYYAESVKGRFTISRADSKNSLYLQMNSLKTEDTAVYYCRYVHYAASYGVDAWGQGTTVTVSS VL: DIVMTQSPLSLPVTPGEPASISCRSSQSLVHSNRNTYLHWYQQKPGQAPRLLIYKVSNRFSGVPDRFSGSGSGTDFTLKISRVEAEDVGVYYCGQGTQVPYTFGQGTKLEIKR	60.2
TR01H067-E22Hh/none-Hi-Kn010G3/L0000-k0 (antibody, V domains shown, one-arm) VH: QVQLVESGGGLVQPGRSLRLSCAASGFTFSNAWMHWVRQAPGKGLEWVAQIKDKSQNYATYYAESVKGRFTISRDDSKNSLYLQMNSLKTEDTAVYYCRYVHYAASYGVDAWGQGTTVTVSS VL: DIVMTQSPLSLPVTPGEPASISCRSSQSLVHSNRNTYLHWYQQKPGQAPRLLIYKVSNRFSGVPDRFSGSGSGTDFTLKISRVEAEDVGVYYCGQGTQVPYTFGQGTKLEIKR	71.5
TR01H067-E22Hh/none-Hi-Kn010G3/L0011-k0 (antibody, V domains shown, one-arm) VH: QVQLVESGGGLVQPGRSLRLSCAASGFTFSNAWMHWVRQAPGKGLEWVAQIKDKSQNYATYYAESVKGRFTISRDDSKNSLYLQMNSLKTEDTAVYYCRYVHYAASYGVDAWGQGTTVTVSS VL: DIVMTQSPLSLPVTPGEPASISCRSSQPLVHSNRNTYLHWYQQKPGQAPRLLIYKVSNRFSGVPDRFSGSGSGTDFTLKISRVEAEDVGVYYCGQGTQVPYTFGQGTKLEIKR	71.8
TR01H067-E22Hh/none-Hi-Kn010G3/L0201-k0 (antibody, V domains shown, one-arm) VH: QVQLVESGGGLVQPGRSLRLSCAASGFTFSNAWMHWVRQAPGKGLEWVAQIKDKSQNYATYYAESVKGRFTISRDDSKNSLYLQMNSLKTEDTAVYYCRYVHYAASYGVDAWGQGTTVTVSS VL: DIVMTQSPLSLPVTPGEPASISCRSSQPPVHSNRNTYLHWYQQKPGQAPRLLIYKVSNRFSGVPDRFSGSGSGTDFTLKISRVEAEDVGVYYCGQGTQVPYTFGQGTKLEIKR	59.3

The remaining lines, values ahead:

Kd [nM]	Binder
42.3	TR01H046-E22Hh/none-Hi-Kn010G3/L0000-k0 (antibody, V domains shown, one-arm) VH: QVQLVESGGGLVQPGRSLRLSCSASGFTFSNAWMHWVRQAPGKGLEWVAQIKDKSQNYATYYAESVKGRFTISRADSKNSIYLQMNSLKTEDTAVYYCRYVHYSASYGVDYWGQGTTVTVSS VL: DIVMTQSPLSLPVTPGEPASISCRSSQSLVHSNRNTYLHWYQQKPGQAPRLLIYKVSNRFSGVPDRFSGSGSGTDFTLKISRVEAEDVGVYYCGQGTQVPYTFGQGTKLEIKR
20.4	TR01H047-E22Hh/none-Hi-Kn010G3/L0000-k0 (antibody, V domains shown, one-arm) VH: QVQLVESGGGLVQPGRSLRLSCAASGFTFSNAWMHWVRQAPGKGLEWVAQIKDKSNNYATYYAESVKGRFTISRDDSKNSIYLQMNSLKTEDTAVYYCRYVHYSASYGVDIWGQGTTVTVSS VL: DIVMTQSPLSLPVTPGEPASISCRSSQSLVHSNRNTYLHWYQQKPGQAPRLLIYKVSNRFSGVPDRFSGSGSGTDFTLKISRVEAEDVGVYYCGQGTQVPYTFGQGTKLEIKR
29.1	TR01H051-E22Hh/none-Hi-Kn010G3/L0000-k0 (antibody, V domains shown, one-arm) VH: QVQLVESGGGLVQPGRSLRLSCAASGFTFSNAWMHWVRQAPGKGLEWVAQIKDKSNNYATYYAESVKGRFTISRADSKNSLYLQMNSLKTEDTAVYYCRYVHYSASYGVDIWGQGTTVTVSS VL: DIVMTQSPLSLPVTPGEPASISCRSSQSLVHSNRNTYLHWYQQKPGQAPRLLIYKVSNRFSGVPDRFSGSGSGTDFTLKISRVEAEDVGVYYCGQGTQVPYTFGQGTKLEIKR
38.8	TR01H055-E22Hh/none-Hi-Kn010G3/L0000-k0 (antibody, V domains shown, one-arm) VH: QVQLVESGGGLVQPGRSLRLSCAASGFTFSNAWMHWVRQAPGKGLEWVAQIKDKSNNYATYYAESVKGRFTISRDDSKNSLYLQMNSLKTEDTAVYYCRYVHYSASYGVDIWGQGTTVTVSS VL: DIVMTQSPLSLPVTPGEPASISCRSSQSLVHSNRNTYLHWYQQKPGQAPRLLIYKVSNRFSGVPDRFSGSGSGTDFTLKISRVEAEDVGVYYCGQGTQVPYTFGQGTKLEIKR
17.1	TR01H061-E22Hh/none-Hi-Kn010G3/L0000-k0 (antibody, V domains shown, one-arm) VH: QVQLVESGGGLVQPGRSLRLSCAASGFTFSNAWMHWVRQAPGKGLEWVAQIKDKSQNYATYYAESVKGRFTISRADSKNSIYLQMNSLKTEDTAVYYCRYVHYAASYGVDIWGQGTTVTVSS VL: DIVMTQSPLSLPVTPGEPASISCRSSQSLVHSNRNTYLHWYQQKPGQAPRLLIYKVSNRFSGVPDRFSGSGSGTDFTLKISRVEAEDVGVYYCGQGTQVPYTFGQGTKLEIKR
18.8	TR01H061-E22Hh/none-Hi-Kn010G3/L0222-k0 (antibody, V domains shown, one-arm) VH: QVQLVESGGGLVQPGRSLRLSCAASGFTFSNAWMHWVRQAPGKGLEWVAQIKDKSQNYATYYAESVKGRFTISRADSKNSIYLQMNSLKTEDTAVYYCRYVHYAASYGVDIWGQGTTVTVSS VL: DIVMTQSPLSLPVTPGEPASISCRSSQSPVHSNRNTYIQWYQQKPGQAPRLLIYKVSNRFSGVPDRFSGSGSGTDFTLKISRVEAEDVGVYYCYQGTQVPYTFGQGTKLEIKR
30.7	TR01H064-E22Hh/none-Hi-Kn010G3/L0000-k0 (antibody, V domains shown, one-arm) VH: QVQLVESGGGLVQPGRSLRLSCSASGFTFSNAWMHWVRQAPGKGLEWVAQIKDKSQNYATYYAESVKGRFTISRADSKNSIYLQMNSLKTEDTAVYYCRYVHYAASYGVDAWGQGTTVTVSS VL: DIVMTQSPLSLPVTPGEPASISCRSSQSLVHSNRNTYLHWYQQKPGQAPRLLIYKVSNRFSGVPDRFSGSGSGTDFTLKISRVEAEDVGVYYCGQGTQVPYTFGQGTKLEIKR

Source: US20250066503A1, “CELL INJURY INDUCING THERAPEUTIC DRUG FOR USE IN CANCER THERAPY” (CHUGAI SEIYAKU KABUSHIKI KAISHA, priority 2016, published 2025)
